{"source": "patent US20070055049A1", "key": {"[1]": {"molecular_target": "HLA-A*0201 (human)", "experiment": "competitive inhibition, purified HLA-A2.1, standard reference peptide"}, "[2]": {"molecular_target": "HLA-A*0201 (human)", "experiment": "competitive inhibition of the radiolabeled peptide, purified HLA, average"}, "[3]": {"molecular_target": "HLA-A*0203 (human)", "experiment": "competitive inhibition of the radiolabeled peptide, purified HLA, average"}, "[4]": {"molecular_target": "HLA-A*0201 (human)", "experiment": "competitive inhibition, purified HLA-A2.1, reference peptide"}, "[5]": {"molecular_target": "HLA-A*0201 (human)", "experiment": "competitive inhibition, purified HLA-A2.1"}, "[6]": {"molecular_target": "HLA-A3.2 (product of the A*0301 gene) (human)"}, "[7]": {"molecular_target": "HLA-A*0201 (human)", "experiment": "inhibition curve with unlabeled peptide, purified A2.1", "details": "remark: other sources report otherwise"}, "[8]": {"molecular_target": "HLA-A*0201 (human)", "details": "remark: other sources report otherwise"}}, "data": [{"binder": "FLPSDYFPSV (modifications not checked)", "note": "[HBV core 18-27 F6>Y analog peptide]", "values": [{"measurement": "IC50", "setting": "[1]", "result": 5, "unit": "nM"}, {"measurement": "IC50", "setting": "[2]", "result": 5, "unit": "nM"}, {"measurement": "IC50", "setting": "[3]", "result": 10, "unit": "nM"}, {"measurement": "IC50", "setting": "[4]", "result": 5, "unit": "nM"}]}, {"binder": "YMDDVVLGA (modifications not checked)", "note": "[HBV pol 538 peptide]", "values": [{"measurement": "IC50", "setting": "[5]", "result": 200, "unit": "nM"}]}, {"binder": "FLPSDFFPSV (modifications not checked)", "note": "[HBc 18-27 peptide, P03146 18-27]", "values": [{"measurement": "IC50", "setting": "[6]", "result": "> 30000", "unit": "nM"}, {"measurement": "IC50", "setting": "[7]", "result": 25, "unit": "nM"}, {"measurement": "percent of radiolabeled peptide bound", "setting": "[8]", "result": 95, "unit": "%"}]}]}
